Values of other authors as cited in paper PMC2667909.
pKd: −log10 of the molar value.

Target: Histone H3 peptide (H3K27me3) (Drosophila melanogaster) (UniProt P02299)

pKd: 5.30
Substance: Polycomb (Pc) chromodomain (from UniProt P26017)
